The values below come from patent publication US20250101111A1 (ARGENX, published 2025).

Substitutions are numbered along the chain they refer to. Names and notes keep the numbering of the source.

To fix the notation:
T1: human FcγRIIa on THP-1 cells (human, UniProt P12318 34-317)
T1 sequence (looked up): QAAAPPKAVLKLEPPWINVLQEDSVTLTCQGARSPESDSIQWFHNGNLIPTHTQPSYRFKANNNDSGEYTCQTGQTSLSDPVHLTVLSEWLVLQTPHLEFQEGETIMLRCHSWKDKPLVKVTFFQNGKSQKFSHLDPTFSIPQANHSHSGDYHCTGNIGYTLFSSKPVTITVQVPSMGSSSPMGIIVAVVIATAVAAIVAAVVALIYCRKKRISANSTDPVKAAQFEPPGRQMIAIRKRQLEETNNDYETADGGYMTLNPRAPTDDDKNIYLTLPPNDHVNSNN

T2: human FcγRIIa-131R (human, UniProt P12318 34-218, C-terminal biotin)
T2 construct: Bought, C-terminally biotinylated; captured on a streptavidin sensor
T2 sequence (looked up): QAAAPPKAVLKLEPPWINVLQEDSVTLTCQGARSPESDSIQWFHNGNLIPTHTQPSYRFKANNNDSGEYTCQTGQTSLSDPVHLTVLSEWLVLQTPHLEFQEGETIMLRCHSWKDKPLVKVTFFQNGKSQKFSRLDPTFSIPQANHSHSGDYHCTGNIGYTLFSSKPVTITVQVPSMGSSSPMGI

T3: human FcγRIIa-131H (human, UniProt P12318 34-218, C-terminal biotin)
T3 construct: Bought, C-terminally biotinylated; captured on a streptavidin sensor
T3 sequence (looked up): T2 sequence (looked up) with R134H

B1: Fc-G236A-MST-HN (other, human, UniProt P01857-1 104-330, looked up)
chain: DKTHTCPPCPAPELLAGPSVFLFPPKPKDTLYITREPEVTCVVVDVSHEDPEVKFNWYVDGVEVHNAKTKPREEQYNSTYRVVSVLTVLHQDWLNGKEYKCKVSNKALPAPIEKTISKAKGQPREPQVYTLPPSRDELTKNQVSLTCLVKGFYPSDIAVEWESNGQPENNYKTTPPVLDSDGSFFLYSKLTVDKSRWQQGNVFSCSVMHEALKFHYTQKSLSLSPGK
notes: domain: Fc fragment; EU numbering
B2: human FcγRIIIb-NA2 (receptor, UniProt O75015 17-200, looked up)
chain: GMRTEDLPKAVVFLEPQWYSVLEKDSVTLKCQGAYSPEDNSTQWFHNESLISSQASSYFIDAATVNDSGEYRCQTNLSTLSDPVQLEVHIGWLLLQAPRWVFKEEDPIHLRCHSWKNTALHKVTYLQNGKDRKYFHHNSDFHIPKATLKDSGSYFCRGLVGSKNVSSETVNITITQGLAVSTIS
modifications: C-terminal biotin
notes: In-house, C-terminally biotinylated; captured on a streptavidin sensor; also called hFcγRIIIb-NA2
B3: Fc-MST-HN (other, human, UniProt P01857-1 104-330, looked up)
chain: B1 chain with A16G
notes: domain: Fc fragment; MST-HN = M252Y S254T T256E H433K N434F (EU numbering); also called IgG1-Fc MST-HN
B4: human FcγRIIIb-NA1 (receptor, UniProt O75015 17-200, looked up)
chain: B2 chain with S20R, S49N, N66D, I90V
modifications: C-terminal biotin
notes: In-house, C-terminally biotinylated; captured on a streptavidin sensor; also called hFcγRIIIb-NA1
B5: Fc-IHH (other, human, UniProt P01857-1 104-330, looked up)
chain: B1 chain with A16G, Y32M, I33A, T34S, E36T, H90A, K213H, F214N, H215A
notes: domain: Fc fragment; IHH = I253A H310A H435A (EU numbering); also called IgG1-Fc-IHH

For assay [1], the target named is T1, human FcγRIIa on THP-1 cells. As to the kind of experiment: cell-based or functional assay.
Assay [2] deals with T4, human FcRn, endogenous, in THP-1 cells and blood monocytes (human, UniProt P55899 24-365; P61769 21-119). As to the kind of experiment: cell-based or functional assay.
T4 sequence (P55899 24-365 limits assumed, chain 1 of 2): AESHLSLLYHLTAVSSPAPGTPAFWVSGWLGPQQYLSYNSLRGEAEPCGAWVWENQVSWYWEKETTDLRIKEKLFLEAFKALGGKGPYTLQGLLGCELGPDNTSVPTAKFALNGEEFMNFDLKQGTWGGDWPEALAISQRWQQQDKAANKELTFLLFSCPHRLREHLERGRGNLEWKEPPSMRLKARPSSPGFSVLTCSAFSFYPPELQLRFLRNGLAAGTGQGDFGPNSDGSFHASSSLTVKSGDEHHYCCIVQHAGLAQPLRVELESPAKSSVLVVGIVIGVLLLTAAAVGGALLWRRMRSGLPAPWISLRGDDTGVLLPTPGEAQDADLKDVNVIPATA
T4 sequence (P61769 21-119 limits assumed, chain 2 of 2): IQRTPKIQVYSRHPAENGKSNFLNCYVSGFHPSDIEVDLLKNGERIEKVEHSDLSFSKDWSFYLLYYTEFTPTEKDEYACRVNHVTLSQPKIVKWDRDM
The target of another assay is T2, human FcγRIIa-131R. As to the kind of experiment: SPR, Fc fragments on captured FcγRs, pH 7.4. Here is the method: (§1) The sensor surface was regenerated between the cycles by subsequent injections of 20 mM Tris-HCl, 150 mM NaCl pH 8.8 and 20 mM H₃PO₄ pH 2.4. […] Regeneration of the sensor surface between the cycles was performed by injection of 10 mM Gly-HCl pH 2.4. Affinity calculations were carried out by performing an equilibrium analysis interpolating to an Rmax of 200 to 600, depending on the assay, and fitting a 1:1 Langmuir binding model, assuming equilibrium to be reached after 360s of IgG-Fc containing analyte injections. Analysis and calculations were performed using Scrubber Software Version 2 (BioLogic Software), Excel (Microsoft) and Graphpad Prism (Prism).

Another assay concerns the target T3, human FcγRIIa-131H. As to the kind of experiment: SPR, Fc fragments on captured FcγRs, pH 7.4. Here is the method:
as §1

A further assay deals with T5, human FcγRIa (human, UniProt P12314 16-288).
T5 construct: Bought, C-terminally His-tagged; captured on the sensor by biotinylated anti-His mIgG1; also called hFcγRIa; not shown: C-terminal His tag
T5 sequence (P12314 16-288 limits assumed): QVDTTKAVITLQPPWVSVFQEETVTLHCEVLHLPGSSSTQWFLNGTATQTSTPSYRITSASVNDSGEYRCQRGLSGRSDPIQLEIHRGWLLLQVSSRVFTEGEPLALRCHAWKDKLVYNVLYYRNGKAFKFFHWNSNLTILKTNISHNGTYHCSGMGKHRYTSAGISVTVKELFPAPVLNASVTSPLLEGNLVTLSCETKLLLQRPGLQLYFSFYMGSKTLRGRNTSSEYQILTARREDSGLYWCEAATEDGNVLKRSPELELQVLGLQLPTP
The assay can be described thus: SPR (IBIS MX96), FcγR captured on sensor, Fc fragment titrated, pH 7.4, equilibrium 1:1 fit. The protocol: as §1

The target of assay [3] is T6, soluble human FcRn (human, UniProt P55899 24-297; P61769 21-119).
T6 construct: Made in HEK293F cells from two vectors; also called sFcRn; not shown: C-terminal BirA deca-His-tag
T6 sequence (P55899 24-297, chain 1 of 2): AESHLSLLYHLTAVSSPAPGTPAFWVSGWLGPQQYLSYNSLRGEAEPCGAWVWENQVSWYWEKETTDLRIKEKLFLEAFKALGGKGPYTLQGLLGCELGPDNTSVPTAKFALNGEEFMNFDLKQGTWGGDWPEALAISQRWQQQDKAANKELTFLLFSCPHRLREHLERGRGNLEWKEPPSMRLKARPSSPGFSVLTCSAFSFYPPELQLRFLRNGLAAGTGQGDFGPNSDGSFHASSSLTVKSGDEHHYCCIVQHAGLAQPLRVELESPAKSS
T6 sequence (P61769 21-119, chain 2 of 2): as the sequence (P61769 21-119 limits assumed, chain 2 of 2) above
As to the kind of experiment: SPR (IBIS MX96), Fc fragment immobilised, soluble FcRn titrated, pH 7.4, equilibrium 1:1 fit. The protocol:
(§2) Regeneration of the sensor surface between the cycles was performed by injection of 10 mM Gly-HCl pH 2.4. Affinity calculations were carried out by performing an equilibrium analysis interpolating to an Rmax of 200 to 600, depending on the assay, and fitting a 1:1 Langmuir binding model, assuming equilibrium to be reached after 360s of IgG-Fc containing analyte injections. Analysis and calculations were performed using Scrubber Software Version 2 (BioLogic Software), Excel (Microsoft) and Graphpad Prism (Prism).
(§3) Sensorgrams of a representative of three independent affinity measurements were used to determine the binding of the human IgG1-Fc variants to human FcγRs and human FcRn at pH 7.4 and pH 6.0. […] KD values were derived by performing an equilibrium analysis and fitting a 1:1 Langmuir binding model. […] No binding was marked as non-determinable (n.d.). Data are presented in Tables S1-S4 as mean±standard deviation.

Assay [4] deals with T6, soluble human FcRn. The assay can be described thus: SPR (IBIS MX96), Fc fragment immobilised, soluble FcRn titrated, pH 6.0, equilibrium 1:1 fit. Here is the method:
as §2, §3

The assay “Fc-G236A-MST-HN” has as its target B1. As to the kind of experiment: SPR (IBIS MX96), FcγR captured on sensor, Fc fragment titrated, pH 7.4, equilibrium 1:1 fit. Here is the method:
as §1

The next assay has as its target T7, Fc-WT (human, UniProt P01857-1 104-330 = IgG part, limits assumed).
T7 construct: domain: Fc fragment; Fc-only fragment made by Evitria; also called IgG1-Fc wild-type; human IgG1-Fc fragment WT
Described as above. The protocol:
as §1

In another assay the target is T8, Fc-G236A (human, UniProt P01857-1 104-330 = IgG part, G236A).
T8 construct: domain: Fc fragment; Positions in EU numbering; also called IgG1-Fc G236A
Described as above. Here is the method:
as §1

The assay “Fc-MST-HN” concerns the target B3. The description is as above. Here is the method: as §1
The assay “Fc-IHH” has as its target B5. The assay is described as above. Here is the method:
as §1

The assay “human FcγRIIIb-NA1” deals with B4. The assay can be described thus: SPR, Fc fragments on captured FcγRs, pH 7.4. Here is the method: as §1
(SPR reads the build-up and loss of mass on a sensor chip optically.)

The assay “human FcγRIIIb-NA2” addresses B2. The assay can be described thus: SPR, Fc fragments on captured FcγRs, pH 7.4. Here is the method: as §1
The target of the next assay is T9, human FcγRIIIa-158V (human, UniProt P08637 17-208, C-terminal biotin).
T9 construct: Bought, C-terminally biotinylated; captured on a streptavidin sensor; also called hFcγRIIIa-158V
As to the kind of experiment: SPR, Fc fragments on captured FcγRs, pH 7.4. Here is the method: as §1

The next assay addresses T10, human FcγRIIIa-158F (human, UniProt P08637 17-208, C-terminal biotin).
T10 construct: Bought, C-terminally biotinylated; captured on a streptavidin sensor; also called hFcγRIIIa-158F
The assay can be described thus: SPR, Fc fragments on captured FcγRs, pH 7.4. The protocol:
as §1

For assay [5], the target named is T4, human FcRn, endogenous, in THP-1 cells …. The assay can be described thus: intracellular FcRn occupancy assay, flow cytometry: THP-1 FcγRIIa K.O. cells preloaded with IVIg, free FcRn stained with DL650-labeled anti-FcRn Fab.
Method: In short, 1×10⁵ cells were loaded with 5-fold dilution series of IgG variants and fragments thereof for 2 h, ranging from 4 to 500 nM under culture conditions, as specified above. […] 95 μL of this cell solution was then combined with 5 μL of 20× concentrated dilution series of IgG variants and incubated for another 2 h under culture conditions. Thereafter, cells were transferred to 96-well V-bottom plate (Corning) and incubated on ice for 2 min. Cells were subsequently spun down for 3 min at 450×g at 4° C. and the supernatant was discarded. Following the same procedure, cells were washed five times with 150 μL ice-cold medium, followed by one wash with 150 μL 1×PBS supplemented with 1% (v/v) FCS at pH 7.4 and one wash with 150 μL of 1×PBS supplemented with 1% (v/v) FCS at pH 6.0. Cells were then fixed and permeabilized using both solutions of a Fixation/Permeabilization Kit (BD Biosciences) adapted to pH 6.0 after addition of MES (Thermo Fisher Scientific) to a final concentration of 0.5M, otherwise following manufacturer's instructions. […] Cells were washed twice with 150 μL 1×PBS supplemented with 1% (v/v) FCS at pH 6.0, spun down at 450×g at 4° C. for 3 min and the supernatants were discarded. Finally, cells were resuspended in 50 μL of the same buffer, transferred to Micronics tubes (Micronic) on ice and measured in flow cytometry.

In general, Kd refers to the concentration at which binding is half-saturated. A high value points to a looser complex. With B1, the “Fold-intensity of intracellular accumulation compared to Fc-WT (Image Stream, THP-1 cells)” value in [1] and in [2] was 1.87 fold of Fc-WT throughout. For the same molecule, the “fold increase in affinity compared to Fc-MST-HN” value with human FcγRIIa-131R is roughly 6 fold; in the assay with human FcγRIIa-131H, roughly 9 fold. Further, the “fold increase in binding compared to Fc-WT” value with human FcγRIIa-131R and in the assay with human FcγRIIa-131H was 2 fold in each case. The Kd with human FcγRIa was found to be 10.8 nM; in the assay with soluble human FcRn [3], 1340 nM; in the assay with soluble human FcRn [4], 23.4 nM.
As to B2, the Kd with Fc-G236A-MST-HN, in the assay with Fc-WT, with Fc-G236A, with Fc-MST-HN and in the assay with Fc-IHH was greater than 2000 nM in each case.
Turning to B3, the “fold reduction in binding compared to Fc-WT” value in the assay with human FcγRIIIb-NA1, with human FcγRIIIb-NA2, in the assay with human FcγRIIIa-158V, with human FcγRIIa-131R, with human FcγRIIIa-158F and with human FcγRIIa-131H was no less than 3 fold throughout. Moreover, the figures for the Kd with human FcγRIa, in the assay with soluble human FcRn [3] and in the assay with soluble human FcRn [4] were 5.9 nM, 1410 nM and 18.9 nM, respectively.
As to B4, the Kd with Fc-G236A-MST-HN, in the assay with Fc-WT, in the assay with Fc-G236A, with Fc-MST-HN and in the assay with Fc-IHH was greater than 2000 nM each time.
B5: in assay [5], the binding result is “no binding (tested: 500 nM)”. Besides, the “fold reduction in binding compared to Fc-WT” value with human FcγRIIIb-NA1, in the assay with human FcγRIIIb-NA2, with human FcγRIIIa-158V, with human FcγRIIa-131R, in the assay with human FcγRIIIa-158F and in the assay with human FcγRIIa-131H was no less than 3 fold each time. In the assay with human FcγRIa, this molecule gave a Kd of 6.1 nM.
